US20060121042A1 (AstraZeneca / MedImmune, published 2006)
Substitutions are numbered along the chain they refer to.

T1: r murine EphA3 (mouse, UniProt P29319)
T1 construct: recombinant Fc fusion (R&D Systems); also called rmuEphA3-Fc; mEphA3
T1 sequence (receptor-Fc fusion, looked up): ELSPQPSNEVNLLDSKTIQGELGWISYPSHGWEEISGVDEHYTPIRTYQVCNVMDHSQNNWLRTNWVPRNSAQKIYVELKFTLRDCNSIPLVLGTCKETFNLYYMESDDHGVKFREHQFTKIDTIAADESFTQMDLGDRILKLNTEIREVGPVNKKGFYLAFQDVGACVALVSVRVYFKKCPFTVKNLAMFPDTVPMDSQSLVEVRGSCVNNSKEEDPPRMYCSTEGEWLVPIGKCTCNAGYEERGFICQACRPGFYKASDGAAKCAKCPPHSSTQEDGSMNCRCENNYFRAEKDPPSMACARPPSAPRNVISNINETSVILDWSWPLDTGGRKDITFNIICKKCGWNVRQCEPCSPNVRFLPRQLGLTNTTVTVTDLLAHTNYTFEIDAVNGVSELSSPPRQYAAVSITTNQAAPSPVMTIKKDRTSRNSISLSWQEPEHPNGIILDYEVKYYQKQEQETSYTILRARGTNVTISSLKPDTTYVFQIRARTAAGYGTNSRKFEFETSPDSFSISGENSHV

T2: r murine EphA7 (mouse, UniProt Q61772)
T2 construct: recombinant Fc fusion (R&D Systems); also called rmuEphA7-Fc; mEphA7
T2 sequence (receptor-Fc fusion, looked up): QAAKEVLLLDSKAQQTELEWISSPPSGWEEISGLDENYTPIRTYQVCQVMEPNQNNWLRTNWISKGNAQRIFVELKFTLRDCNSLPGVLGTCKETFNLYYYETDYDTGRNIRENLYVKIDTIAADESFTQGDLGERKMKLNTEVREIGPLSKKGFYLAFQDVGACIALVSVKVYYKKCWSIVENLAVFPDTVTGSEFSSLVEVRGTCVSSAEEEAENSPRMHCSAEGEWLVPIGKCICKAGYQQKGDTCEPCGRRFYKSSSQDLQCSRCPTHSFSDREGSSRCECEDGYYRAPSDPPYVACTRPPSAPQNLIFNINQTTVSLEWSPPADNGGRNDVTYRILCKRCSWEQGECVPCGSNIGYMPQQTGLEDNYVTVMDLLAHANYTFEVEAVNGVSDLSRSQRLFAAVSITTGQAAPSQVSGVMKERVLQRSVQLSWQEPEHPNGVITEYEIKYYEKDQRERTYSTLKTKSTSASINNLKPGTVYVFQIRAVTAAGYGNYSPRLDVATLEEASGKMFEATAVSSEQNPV

T3: mEphA3 (mouse, UniProt P29319)
T3 construct: part of an Fc fusion; also called rmuEphA3-Fc
T3 sequence (receptor-Fc fusion, looked up): T1 sequence (receptor-Fc fusion, looked up)

T4: mEphA7 (mouse, UniProt Q61772)
T4 construct: part of an Fc fusion; also called rmuEphA7-Fc
T4 sequence (receptor-Fc fusion, looked up): T2 sequence (receptor-Fc fusion, looked up)

B1: 1D11 IgG1 (affinity optimized combinatorial variant of mAb GEA44 in human IgG1 format) (antibody, V domains shown)
VH: QVQLLQSGAEVKKPGASVKVPCKASGYTFTSRAMSWVRQAPGQGLEWMGWINTNTGNPTYAQGFTGRFVFSLDTSVSTAYLQISSLKAEDTAVYYCARVRTTVYGDNMDVWGQGTLVTVSS
VL: EIVLTQSPATLSVSPGERATLSCRASQSVSSNLPWYQQKPGQAPRLLIYGASTRATGIPDRFSASGSGTDFTLTISRVEPEDFAVYYCQQYGPSWTFGQGTKVEIK
B2: 1A4 IgG1 (affinity optimized combinatorial variant of mAb GEA44 in human IgG1 format) (antibody, V domains shown)
VH: B1 VH with F64S, T101F, N107G
VL: B1 VL with L33P, P34A
B3: 1G11 IgG1 (affinity optimized combinatorial variant of mAb GEA44 in human IgG1 format) (antibody, V domains shown)
VH: B1 VH with T101F, N107G
VL: B1 VL with A55P
B4: 8B4 IgG1 (affinity optimized combinatorial variant of mAb GEA44 in human IgG1 format) (antibody, V domains shown)
VH: B1 VH with T101L, N107G
VL: B1 VL with L33P, P34A, A51L
B5: 6B7 Fab (affinity optimized combinatorial variant of Fab20) (Fab, V domains shown)
VH: B1 VH with T101F, N107G
VL: B1 VL with L33P, P34A
B6: 3C6 Fab (affinity optimized combinatorial variant of Fab20) (Fab, V domains shown)
VH: B1 VH with T101L, N107G
VL: B1 VL with L33P, P93S
B7: 1G11 Fab (affinity optimized combinatorial variant of Fab20) (Fab, V domains shown)
VH: B1 VH with T101F, N107G
VL: B1 VL with A55P
B8: 1B10 Fab (affinity optimized combinatorial variant of Fab20) (Fab, V domains shown)
VH: B1 VH with T101F, N107G
VL: B1 VL with L33P, P34A, R54W
B9: 1A4 Fab (affinity optimized combinatorial variant of Fab20) (Fab, V domains shown)
VH: B1 VH with F64S, T101F, N107G
VL: B1 VL with L33P, P34A
B10: 1D11 Fab (affinity optimized combinatorial variant of Fab20) (Fab, V domains shown)
VH: B1 VH
VL: B1 VL
B11: EA5 (antibody, V domains shown)
VH: EVQLQQSGPELVKTGASVKISCKASGYSFTGYYMHWVKQSHGKSLEWIGYISCYNGVTSYNQKFKGKATFTVDTSSSTAYMQFNSLTSEDSAVYYCARSHAMDYWGQGTSVTVSS
VL: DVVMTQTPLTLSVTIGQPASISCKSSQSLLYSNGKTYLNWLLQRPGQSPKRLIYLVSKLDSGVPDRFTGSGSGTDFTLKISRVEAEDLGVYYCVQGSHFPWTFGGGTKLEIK
B12: 4H5 (antibody, V domains shown)
VH: QVQLLESGGGLVQPGGSLRLSCAASGFTFSSYTMSWVRQAPGQALEWMGTISSGGTYTYYPDSVKGRFTISRDNAKNSLYLQMNSLRAEDTAVYYCAREAIFTYWGRGTLVTVSS
VL: DIQLTQSPSSLSASVGDRVTITCKASQDINNYLSWYQQKPGQAPRLLIYRANRLVDGVPDRFSGSGYGTDFTLTINNIESEDAAYYFCLKYDVFPYTFGQGTKVEIK
B13: 12G3H11 (antibody, V domains shown)
VH: QMQLVQSGPEVKKPGTSVKVSCKASGFTFDDYSMNWVRQARGQRLEWIGFIRNKANDYTTEYADSVKGRVTITRDMSTSTAYMELSSLRSEDTAVYYCARYPRHHAMDSWGQGTSVTVSS
VL: DIQMTQSPSSLSASVGDRVTITCRASQSISNNLHWYQQKPGKAPKLLIKYAFQSISGVPSRFSGSGSGTDFTFTISSLQPEDFATYYCQQANSWPLTFGGGTKVEIK

target: T5, Human EphA4-His fusion protein (human, UniProt P54764 20-547); test: BIAcore, IgG immobilized on the sensor chip, EphA4-his as analyte
T5 construct: also called rhuEphA4-His; not shown: Histidine tag
Description: (§1) FIG. 15A-15B. […] Binding affinities were measured using the BIAcore assay. […] Variant kinetic measurements for human EphA4 and were obtained using BIAcore with immobilized variant antibodies and human EphA4-Fc and EphA4-His as analytes.

T5 sequence (P54764 20-547): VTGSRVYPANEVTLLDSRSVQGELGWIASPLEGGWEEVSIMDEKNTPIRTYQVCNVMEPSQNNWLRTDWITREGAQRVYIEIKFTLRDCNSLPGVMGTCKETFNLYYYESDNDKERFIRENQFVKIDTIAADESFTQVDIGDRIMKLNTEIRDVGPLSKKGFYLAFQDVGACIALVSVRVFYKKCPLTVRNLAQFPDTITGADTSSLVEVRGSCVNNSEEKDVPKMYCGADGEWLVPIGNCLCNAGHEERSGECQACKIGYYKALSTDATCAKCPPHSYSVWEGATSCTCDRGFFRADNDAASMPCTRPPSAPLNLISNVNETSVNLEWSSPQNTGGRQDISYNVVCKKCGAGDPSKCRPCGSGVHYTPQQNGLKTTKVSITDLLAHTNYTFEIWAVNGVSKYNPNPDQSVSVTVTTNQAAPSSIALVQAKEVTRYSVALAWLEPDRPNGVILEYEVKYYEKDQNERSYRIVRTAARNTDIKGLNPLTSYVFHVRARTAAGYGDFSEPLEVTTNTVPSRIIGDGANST

Row | Kd | koff | kon | Binder
1 | 8.8 nM | 0.000984 s⁻¹ | 112000 M⁻¹ s⁻¹ | B1
2 | 0.8 nM | 0.000345 s⁻¹ | 431000 M⁻¹ s⁻¹ | B2

target: T6, Human EphA4-Fc fusion protein (human, UniProt P54764 20-547); test: BIAcore, IgG immobilized on the sensor chip, EphA4-Fc as analyte
T6 construct: not shown: Fc portion of a human IgG1
Description: as §1

T6 sequence (P54764 20-547): as above

Row | Kd | koff | kon | Binder
3 | 0.176 nM | 6.15e-05 s⁻¹ | 350000 M⁻¹ s⁻¹ | B1
4 | 0.059 nM | 1.01e-05 s⁻¹ | 172000 M⁻¹ s⁻¹ | B3
5 | 0.037 nM | 2.87e-05 s⁻¹ | 769000 M⁻¹ s⁻¹ | B2
6 | 0.197 nM | 2.2e-05 s⁻¹ | 112000 M⁻¹ s⁻¹ | B4

target: T7, r murine EphA4 (mouse, UniProt Q03137); test: activity ELISA, Fab on coated antigen
T7 construct: recombinant Fc fusion (R&D Systems); also called rmuEphA4-Fc; mEphA4
Description: (§2) More precisely, Nunc Maxisorp plates were coated with the following rEphA proteins: rhuEphAl-Fc, rmuEphA2-Fc, rmuEphA3-Fc, rmuEphA4-Fc, rratEphA5-Fc, rmuEphA6-Fc, rmuEphA7-Fc, rEphA8; all at 0.5 μg/well (all R&D Systems) rhuEphA2-Fc; 0.5 μg/well, and rhuEphA4-His; 0.1 μg/well (both produced at MedImmune, Inc.). Plates were blocked with 3% BSA+0.1% Tween20 for 2 h. […] Incubation with a goat anti-human kappa horseradish peroxydase (HRP) conjugate then followed. HRP activity was detected with TMB substrate and the reaction quenched with 0.2 M H₂SO₄. Plates were read at 450 nm. Data was analyzed by normalizing Fab concentrations to the corresponding activity data (see FIGS. 10B-10H).

T7 sequence (Q03137 20-547 limits assumed): as the sequence (P54764 20-547) above, with P59A, N121S, V124G, R250Q, S251N, T270S, K378R, N406S counted along it

Row | binding result | Binder
7 | binds | B5
8 | binds | B6
9 | binds | B7
10 | binds | B8
11 | binds | B9
12 | binds | B10

target: T1, r murine EphA3; test: activity ELISA, Fab on coated antigen
Description: as §2

Row | binding result | Binder
13 | binds | B5
14 | binds | B7
15 | binds | B9

target: T2, r murine EphA7; test: activity ELISA, Fab on coated antigen
Description: as §2

Row | binding result | Binder
16 | binds | B5
17 | binds | B6
18 | binds | B7
19 | binds | B8
20 | binds | B9
21 | binds | B10

target: T8, hEphA2 (human, UniProt P29317); test: ELISA
T8 construct: also called human EphA2
T8 sequence (P29317 25-534 limits assumed): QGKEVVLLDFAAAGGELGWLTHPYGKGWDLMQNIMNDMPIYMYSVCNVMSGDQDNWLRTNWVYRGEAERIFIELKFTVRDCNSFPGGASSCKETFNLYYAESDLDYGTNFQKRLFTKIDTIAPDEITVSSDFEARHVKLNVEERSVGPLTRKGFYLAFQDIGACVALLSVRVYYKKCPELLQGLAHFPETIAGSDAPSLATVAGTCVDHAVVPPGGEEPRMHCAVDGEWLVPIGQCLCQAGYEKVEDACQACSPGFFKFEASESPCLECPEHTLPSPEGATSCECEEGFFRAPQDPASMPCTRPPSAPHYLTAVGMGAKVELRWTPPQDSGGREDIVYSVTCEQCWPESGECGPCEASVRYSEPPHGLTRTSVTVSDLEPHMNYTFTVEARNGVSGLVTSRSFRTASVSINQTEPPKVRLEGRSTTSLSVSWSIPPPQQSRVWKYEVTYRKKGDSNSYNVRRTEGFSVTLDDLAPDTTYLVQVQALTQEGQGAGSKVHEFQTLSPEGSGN

Row | ELISA O.D. value | Binder
22 | 0.131 | B11
23 | 0.724 | B12
24 | 0.849 | B13

target: T3, mEphA3; test: ELISA, receptor coated on the plate, purified IgG, anti-human kappa-HRP
Description: (§3) Secondary screening of IgG constructs of affinity optimized combinatorial variants with additional EphA receptors: With purified IgG constructs of the nine combinatorial variants, additional secondary screening assays were performed using the Activity ELISA (see above) and recombinant EphA receptor proteins. More precisely, Nunc Maxisorp plates were coated with the following rEphA proteins: rhuEphAl-Fc; 0.5 μg/well, rmuEphA2-Fc; 0.5 μg/well, rmuEphA3-Fc: 0.1 μg/well, rmuEphA4-Fc; 0.1 μg/well, rratEphA5-Fc; 0.5 μg/well, rmuEphA6-Fc; 0.5 μg/well, rmuEphA7-Fc; 0.1 μg/well, rEphA8; 0.2 μg/well (all R&D Systems), rhuEphA2-Fc; 0.5 μg/well, and rhuEphA4-His; 0.1 μg/well (both produced at MedImmune, Inc.). Plates were blocked with 3% BSA+0.1% Tween20 for 2 h. […] Incubation with a goat anti-human kappa horseradish peroxydase (HRP) conjugate then followed. HRP activity was detected with TMB substrate and the reaction quenched with 0.2 M H₂SO₄. Plates were read at 450 nm. Data was analyzed by normalizing Fab concentrations to the corresponding activity data (see FIGS. 12A-12J and 14).

Row | binding result | Binder
25 | binds | B3
26 | binds | B2

target: T9, mEphA4 (mouse, UniProt Q03137); test: as above
T9 construct: part of an Fc fusion; also called rmuEphA4-Fc
Description: as §3

T9 sequence (Q03137 20-547 limits assumed): as the sequence (P54764 20-547) above, with P59A, N121S, V124G, R250Q, S251N, T270S, K378R, N406S counted along it

Row | binding result | Binder
27 | binds | B1
28 | binds | B3
29 | binds | B2

target: T4, mEphA7; test: as above
Description: as §3

Row | binding result | Binder
30 | binds | B1
31 | binds | B3
32 | binds | B2

target: T7, r murine EphA4; test: activity ELISA, IgG on coated antigen
Description: as §3

Row | binding result | Binder
33 | binds | B1
34 | binds | B3
35 | binds | B2

target: T1, r murine EphA3; test: activity ELISA, IgG on coated antigen
Description: as §3

Row | binding result | Binder
36 | binds | B3
37 | binds | B2

target: T2, r murine EphA7; test: activity ELISA, IgG on coated antigen
Description: as §3

Row | binding result | Binder
38 | binds | B1
39 | binds | B3
40 | binds | B2
